Measurements taken from US20110268740A1 (INTERCELL, published 2011).

What was measured:
[1] = molecular target: T1, M2e (SEQ ID NO:48) conjugated to RNAse A (Influenza A virus (consensus of H1, H2 …))
[2] = molecular target: T1, M2e (SEQ ID NO:48) conjugated to RNAse A; experiment: ELISA, apparent affinity, purified scFv-msFcγ2c on immobilised RNAse A-M2e

Row | Binder | Kd [1] | EC50 [2]
1 | scFv-E040-msFcγ2c (Fc fusion) DADPAQAAELVMTQSPDSLAVSLGERATINCKSSQSVLYSSNNENYLAWYQQKPGQPPKLLIYWASTRESGVPDRFSGSGSGTDFTLTINSVQAEDVAVYYCQQYFMTPITFGQGTRLEIKGGSSRSSSSGGGGSGGGGEVQLLESGGALVQPGRSLRLSCRTSGLNFGDYPINWVRQAPGKGLEWVGFIKSKSYGVTTEFAASVEGRFTISRDDSRGIAYLQMNSLKTEDTAVYYCTSSSGFLYYFDYWGQGTLVTVSSASTKGPSVTSGQAGRKLEPRVPITQNPCPPLKECPPCAAPDLLGGPSVFIFPPKIKDVLMISLSPMVTCVVVDVSEDDPDVQISWFVNNVEVHTAQTQTHREDYNSTLRVVSALPIQHQDWMSGKEFKCKVNNRALPSPIEKTISKPRGPVRAPQVYVLPPPAEEMTKKEFSLTCMITGFLPAEIAVDWTSNGRTEQNYKNTATVLDSDGSYFMYSKLRVQKSTWERGSLFACSVVHEGLHNHLTTKTISRSLGK | 0.013 nM | 0.0883 nM
2 | scFv-D005-msFcγ2c (Fc fusion) DADPAQAAELVMTQSPDSLAVSLGERATINCKSSQSVLYTSNNKNYLGWYQQKPGQPPNLLIYWASTRESGVPDRFSGSGSGTDFTLTINSVQAEDVAVYYCQQYFMTPITFGQGTRLEIKGGSSRSSSSGGGGSGGGGEVQLVESGGALVQPGRSLRLSCRTSGLNFGDYPINWVRQAPGKGLEWVGFIKSKSYGVTTEFAASVEGRFTISRDDSRGIAYLQMNSLKTEDTAVYYCTSSSGFLYYFDYWGQGTLVTVSSASTKGPSVTSGQAGRKLEPRVPITQNPCPPLKECPPCAAPDLLGGPSVFIFPPKIKDVLMISLSPMVTCVVVDVSEDDPDVQISWFVNNVEVHTAQTQTHREDYNSTLRVVSALPIQHQDWMSGKEFKCKVNNRALPSPIEKTISKPRGPVRAPQVYVLPPPAEEMTKKEFSLTCMITGFLPAEIAVDWTSNGRTEQNYKNTATVLDSDGSYFMYSKLRVQKSTWERGSLFACSVVHEGLHNHLTTKTISRSLGK | 0.004 nM | 0.0815 nM
3 | scFv-F052-msFcγ2c (Fc fusion) DADPAQAAERVMTQSPDALAVSLGERATINCKSSQSLLYSSNNKNYLAWYQKKPGQPPKLLIYWASTRESGVPDRFSGSGSGTEFTLTINSVQAEDVAVYYCQQYFMTPITFGQGTKLEIKGGSSRSSSSGGGGSGGGGQVQLQESGGALVQPGRSLRLSCRTSGLNFGDYPINWVRQAPGKGLEWVGFIKSKSYGVTTEFAASVEGRFTISRDDSRGIAYLQMNSLKTEDTAVYYCTSSSGFLYYFDYWGQGTLVTVSSASTKGPSVTSGQAGRKLEPRVPITQNPCPPLKECPPCAAPDLLGGPSVFIFPPKIKDVLMISLSPMVTCVVVDVSEDDPDVQISWFVNNVEVHTAQTQTHREDYNSTLRVVSALPIQHQDWMSGKEFKCKVNNRALPSPIEKTISKPRGPVRAPQVYVLPPPAEEMTKKEFSLTCMITGFLPAEIAVDWTSNGRTEQNYKNTATVLDSDGSYFMYSKLRVQKSTWERGSLFACSVVHEGLHNHLTTKTISRSLGK | 0.006 nM | 0.0506 nM
